In test [1] the target is T1, LC3B (human, UniProt Q9GZQ8 1-125). The test can be described thus: ITC (table of Kd values).
Test [2] concerns the target T2, LGG-1 (C. elegans, UniProt Q09490 1-123, limits assumed).
T2 construct: Purified protein in the ITC; also called worm orthologue of GABARAP
Put plainly: ITC (table of Kd values).

The target in test [3] is T3, LGG-2 (C. elegans, UniProt Q23536 1-130, limits assumed).
T3 construct: also called worm orthologue of LC3
T3 sequence (looked up): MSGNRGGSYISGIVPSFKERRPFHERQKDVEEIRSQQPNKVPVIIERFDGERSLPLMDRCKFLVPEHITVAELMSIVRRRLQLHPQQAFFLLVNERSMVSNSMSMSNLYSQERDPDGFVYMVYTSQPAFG
Put plainly: ITC.

In test [4] the target is T1, LC3B. Put plainly: ITC. (In general: ITC needs no label: the signal is the heat of the interaction.)
The target in test [5] is T4, LC3C (human, UniProt Q9BXW4 1-126). The test can be described thus: ITC.
T4 sequence (Q9BXW4 1-126, form in doubt): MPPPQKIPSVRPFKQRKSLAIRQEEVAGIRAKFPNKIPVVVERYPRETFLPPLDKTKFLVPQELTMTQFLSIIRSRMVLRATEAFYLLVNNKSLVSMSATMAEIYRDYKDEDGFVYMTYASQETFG
For test [6], the target named is T5, LC3A (human, UniProt Q9H492 1-121). Put plainly: ITC.
Test [7] deals with LC3A R70E. Put plainly: ITC.
Chain of LC3A R70E (chain, as listed by the source R70E R70E limits assumed): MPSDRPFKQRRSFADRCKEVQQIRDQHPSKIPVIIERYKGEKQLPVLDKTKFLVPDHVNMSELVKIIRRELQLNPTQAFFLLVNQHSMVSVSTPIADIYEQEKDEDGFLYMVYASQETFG
The target of test [8] is GABARAP R67E. The test can be described thus: ITC.
Chain of GABARAP R67E (chain, as listed by the source R67E R67E limits assumed): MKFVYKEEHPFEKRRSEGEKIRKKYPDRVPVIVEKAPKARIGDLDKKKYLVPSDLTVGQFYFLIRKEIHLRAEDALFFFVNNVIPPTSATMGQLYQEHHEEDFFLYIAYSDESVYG
Test [9] addresses T6, GABARAPL2 (human, UniProt P60520 1-117, limits assumed).
T6 construct: also called GATE-16
The test can be described thus: competition-based ITC (asterisk; legend paragraph 51).

For a further test, the target named is [..]1 (human, UniProt Q9H0R8 1-117). The test is described as above.
Chain of [..]1 (Q9H0R8 whole entry): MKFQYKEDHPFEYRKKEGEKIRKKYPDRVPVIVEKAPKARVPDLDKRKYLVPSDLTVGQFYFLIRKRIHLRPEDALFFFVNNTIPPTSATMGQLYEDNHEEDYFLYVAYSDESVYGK
The target of test [10] is T7, GABARAP (human, UniProt O95166 1-117, limits assumed).
T7 construct: elsewhere only "mammalian"
T7 sequence (O95166 whole entry): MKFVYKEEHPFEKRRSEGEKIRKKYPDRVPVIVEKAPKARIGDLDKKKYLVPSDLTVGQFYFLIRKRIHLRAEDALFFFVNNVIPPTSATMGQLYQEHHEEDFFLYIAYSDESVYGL
Put plainly: ITC.

Test [11] addresses T7, GABARAP. The test can be described thus: ITC (table of Kd values).
Test [12] has as its target T2, LGG-1. The test can be described thus: ITC.
Test [13] concerns the target T7, GABARAP. Put plainly: ITC. The source holds these as a separate data set.
Test [14] concerns the target T5, LC3A. Put plainly: ITC. This is another data set of the same source.
Test [15] concerns the target T7, GABARAP. Put plainly: ITC. This is another data set of the same source.
Test [16] concerns the target T7, GABARAP. Put plainly: ITC; without the C-helix extension (LIR-S, aa 448-461).
In test [17] the target is T3, LGG-2. The test can be described thus: ITC (table of Kd values).
Test [18] concerns the target T6, GABARAPL2. Put plainly: ITC.
Test [19] deals with T1, LC3B. Put plainly: ITC. This is another data set of the same source.
Test [20] has as its target T5, LC3A. The test can be described thus: ITC. The source holds these as a separate data set.
For test [21], the target named is T4, LC3C. Put plainly: ITC. The source holds these as a separate data set.
Test [22] concerns the target LC3A R70E. Put plainly: ITC. The source holds these as a separate data set.
The target of test [23] is GABARAP R67E. The test can be described thus: ITC. This is another data set of the same source.
Test [24] deals with T7, GABARAP. Put plainly: ITC; ratio of the binding to GABARAP against that to LC3A.
The target of test [25] is T5, LC3A. Put plainly: ITC. This is another data set of the same source.

Read-outs that look alike come from different tables or passages of the source.

The source of these data is patent publication US20210169980A1 (HONG KONG UNIVERSITY OF SCIENCE AND TECHNOLOGY, published 2021).

T2 sequence (Q09490 whole entry): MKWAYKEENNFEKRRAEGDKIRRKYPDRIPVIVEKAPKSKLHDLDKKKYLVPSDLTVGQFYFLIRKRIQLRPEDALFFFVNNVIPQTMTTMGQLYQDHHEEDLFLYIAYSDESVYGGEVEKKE
T6 sequence (P60520 whole entry): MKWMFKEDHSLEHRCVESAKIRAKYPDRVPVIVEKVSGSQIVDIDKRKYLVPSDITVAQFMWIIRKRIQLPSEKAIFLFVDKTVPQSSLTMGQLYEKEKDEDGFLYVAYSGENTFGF

One may read the Kd as the concentration at which binding is half-saturated. A low value points to a tighter complex. Consider VEEEWVIVSDEEIEEARQKAPLEITEY [AnkB LIR (AnkB WT peptide, human 440 kD AnkB residues 1588-1614)], for which the Kd with LC3B [1] is 4.2 nM; with LGG-1 [2], 1.2 nM; with LC3B [4], 4.2 nM; with LC3C [5], 10.5 nM; with LC3A [6] it was 3.6 nM; with LC3A R70E [7] it was 860 nM. Moreover, the Kd in the test with GABARAP R67E [8] was 56 nM; in the test with GABARAPL2 [9], 0.21 nM; in [..]1, 0.29 nM. The binding result with LGG-2 [3] is recorded as “binds”.

Take VEEEWVIVSDERIEEARQKAPLEITEY (also called AnkB E1599R) [E1599R]: the Kd was 312 nM with LC3A [6] and 38 nM with GABARAP [10].

B1: AnkB W1592R (peptide)
peptide: VEEERVIVSDEEIEEARQKAPLEITEY
notes: also called AnkB WR; Trp1592Arg mutant of AnkB LIR
As for B1, the Kd with GABARAP [11] was more than 100000 nM; in the test with LC3A [6], approximately 26600 nM; with GABARAP [10], more than 100000 nM. In addition, the binding result with LGG-1 [12] and with LGG-2 [3] was “no binding” in each case.

On to PEDDWTEFSSEEIREA [AnkG LIR construct "1985-2000" (aa 2001-2010 truncated)], for which the “fold decrease of binding against AnkG LIR (aa 1985-2010)” value with GABARAP [13] is approximately 200 fold. Besides, the values for the Kd with LC3A [14] and with GABARAP [15] were 7410 nM and 510 nM, respectively.

B2: human FAM134B LIR without the C-helix extension (LIR-S, aa 448-461) (peptide, UniProt Q9H6L5 448-461, looked up)
peptide: DTEEGDDFELLDQS
notes: range 448-461; also called FAM134B LIR-S
In the test with GABARAP [16], B2 gave a Kd of 704 nM.

With PEDDWTEFSSEEIREARQAAASHAPS [AnkG LIR (AnkG WT peptide, rat 480 kD AnkG residues 1985-2010)], the Kd in the test with LC3B [1] is 339 nM; with LGG-1 [2], 1.6 nM; in the test with LGG-2 [17], 210 nM; with GABARAPL2 [18] it was approximately 40 nM; in the test with GABARAP [13] it was approximately 2.6 nM; with LC3B [19], 339 nM. Also, the Kd with LC3A [20] came out at 546 nM; in the test with LC3C [21], 2930 nM; with LC3A [14] it was 546 nM; with GABARAP R67E [23] it was 114 nM. Moreover, the binding result with LC3A R70E [22] is reported as “no binding”.

B3: AnkG E1991R (modified from rat 480 kD AnkG residues 1985-2010) (peptide)
peptide: PEDDWTRFSSEEIREARQAAASHAPS
notes: also called AnkG ER; Glu1991Arg AnkG LIR
As for B3, in the test with GABARAP [24], the “selectivity between GABARAP and LC3A” value was approximately 1000 fold. In addition, the Kd in the test with LGG-1 [2] is 8.5 nM; with LGG-2 [17], 8470 nM; in the test with LC3A [14] it was 7190 nM; in the test with GABARAP [15], 6.9 nM. Also, in the test with LC3A [25], the “fold lower affinity against AnkG LIR WT” value was approximately 10 fold. In addition, the “fold weaker binding against LGG-1” value with LGG-2 [3] was approximately 1000 fold.

For the molecule PEDDWTEFSSERIREARQAAASHAPS (also called AnkG E1996R) [E1996R], the Kd with LC3A [14] is approximately 100000 nM; with GABARAP [15], 398 nM.

PEDDWTEFSSEEIREQRQAAASHAPS (also called AnkG A2000Q) [A2000Q]: the Kd with LC3A [14] was determined as 8200 nM; with GABARAP [15], 741 nM.

B4: W1989R (peptide)
peptide: PEDDRTEFSSEEIREARQAAASHAPS
notes: Untagged peptide used in ITC; m22 is its mCherry fusion; also called AnkG W1989R; AnkG WR
On to B4, for which the binding result in the test with LC3B [1], in the test with LGG-1 [2], with LGG-2 [17] and in the test with LC3A [14] was “no binding” in each case. Further, the Kd in the test with GABARAP [15] is approximately 12800 nM.

In the case of PEDDWTEFSSEEQREARQAAASHAPS (also called AnkG I1997Q) [I1997Q], the Kd with LC3A [14] was approximately 12500 nM; in the test with GABARAP [15] it was 68 nM.

On to SSEEIREARQAAASHAPS [AnkG LIR C-helix alone (aa 1993-2010)], for which the binding result with GABARAP [13] and with LC3A [14] was “no binding” in each case.
